Experimental findings from patent US20070059825A1 are described below.

The target of the test is human zalpha11 receptor (full-length, on cells) (human) (UniProt Q9HBE5). Kind of test: cell-based or functional assay.
UniProt Q9HBE5, sequence (Q9HBE5 20-538 limits assumed): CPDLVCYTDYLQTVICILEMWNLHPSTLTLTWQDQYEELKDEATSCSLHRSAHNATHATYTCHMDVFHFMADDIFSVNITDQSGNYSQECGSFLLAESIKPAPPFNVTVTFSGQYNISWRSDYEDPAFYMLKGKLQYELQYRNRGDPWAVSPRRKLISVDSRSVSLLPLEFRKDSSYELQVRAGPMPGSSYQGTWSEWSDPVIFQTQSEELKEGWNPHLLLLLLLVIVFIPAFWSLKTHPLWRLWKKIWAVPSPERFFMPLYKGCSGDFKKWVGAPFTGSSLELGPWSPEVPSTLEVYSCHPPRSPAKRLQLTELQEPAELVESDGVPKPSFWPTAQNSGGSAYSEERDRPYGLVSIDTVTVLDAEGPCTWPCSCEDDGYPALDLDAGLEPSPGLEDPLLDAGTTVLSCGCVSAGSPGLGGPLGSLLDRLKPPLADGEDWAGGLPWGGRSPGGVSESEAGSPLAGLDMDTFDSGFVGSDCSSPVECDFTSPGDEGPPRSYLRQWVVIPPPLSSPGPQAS

human zalpha11 Ligand-saporin immunotoxin conjugate, sequence (Q9HBE4 32-162): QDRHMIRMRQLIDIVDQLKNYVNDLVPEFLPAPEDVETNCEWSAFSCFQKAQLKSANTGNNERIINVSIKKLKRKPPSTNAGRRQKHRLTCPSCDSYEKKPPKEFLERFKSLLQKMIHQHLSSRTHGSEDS

Substance “human zalpha11 Ligand-saporin immunotoxin conjugate” showed a growth inhibition of IM-9 cells at the maximal conjugate concentration (250 ng/ml), Alamar Blue of 79% and a growth inhibition of RAMOS cells at the maximal conjugate concentration (250 ng/ml), Alamar Blue of 65%.
